Where a chain is given by its changes, count along the chain named. Names and notes keep the numbering of the source. Values joined by “and” are separate entries in the source; they are usually repeats but may differ in a detail not shown here. Equal values may be shown once. One block for each molecule: values may come before it.
Tests used:
[1] = biological target: Lip-SSDP_(1–92) Mα3 (F66E L69A Y70A) (Drosophila) (UniProt Q9VEB9); assay: SEC-MALS; MBP-LCCD_(Chip) (WT or Mα6) coexpressed with Lip-SSDP_(1–92) (WT, V65K, Mα3 or ML), purified; Superdex-200 10/300, 2 mg/mL, PBS, 1 mM DTT; PAGE of SEC fractions
[2] = biological target: the molecule itself; assay: crystal structure; DD (XLdb1 20-200) bound to a DARPin; 2.0 to 2.59 Å depending on the DARPin
[3] = biological target: the molecule itself; assay: SEC-MALS; Lip-SSDP_(1–92) WT and mutants alone; Superdex-200 10/300, loaded at 2 mg/mL, PBS, 1 mM DTT; self-association of SSDP dimers into tetramers
MBP-LCCD_(Chip) = biological target: T1, MBP-LCCD_(Chip) (Drosophila, UniProt Q7KVG9-2 384-436); assay: SEC-MALS; MBP-LCCD_(Chip) (WT or Mα6) coexpressed with Lip-SSDP_(1–92) (WT, V65K, Mα3 or ML), purified; Superdex-200 10/300, 2 mg/mL, PBS, 1 mM DTT; PAGE of SEC fractions; details: both partners purified
T1 construct: Drosophila Chip, LCCD, residues 384-436; also called Chip-LCCD (residues 384 to 436); source: E. coli BL21(DE3)-RIL, bicistronic coexpression with Lip-SSDP_(1–92), purified (Ni-NTA, gel filtration)
T1 sequence (looked up): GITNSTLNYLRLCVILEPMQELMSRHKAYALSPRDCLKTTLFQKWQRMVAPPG

[4] = biological target: the molecule itself; assay: as above
[5] = biological target: the molecule itself; assay: crystal structure; SSDP_(1–86), tags removed; vapor diffusion at 19 °C; 2.4 Å

- stoichiometry N [1]: 2
Molecule: Lip-SSDP_(1–92) Mα3 (F66E L69A Y70A) (from UniProt Q9VEB9 1-92) (domain or fragment)

B1: DD (XLdb1 20-200) (domain or fragment, Xenopus laevis, UniProt P70060 20-200, looked up)
chain: GIGRHTPYGNQTDYRIFELNKRLQNWTEECDNLWWDAFTTEFFEDDAMLTITFCLEDGPKRYTIGRTLIPRYFRSIFEGGATELYYVLKHPKESFHNNFVSLDCDQCTMVTQHGKPMFTQVCVEGRLYLEFMFDDMMRIKTWHFSIRQHRELIPRSILAMHAQDPQMLDQLSKNITRCGLS
notes: Xenopus laevis Ldb1 (XLdb1), dimerization domain, residues 20-200; also called dimerization domain of XLdb1; source: E. coli BL21(DE3)-RIL, purified (Ni-NTA, gel filtration)
- binding result [2]: binds

B2: Lip-SSDP_(1–92) (domain or fragment, Drosophila, UniProt Q9VEB9 1-92, looked up)
chain: MYGKSKTSAVPSDAQAREKLALYVYEYLLHVGAQKAAQTFLSEIRWEKNITLGEPPGFLHTWWCVFWDLYCAAPERRDQCDHSSEAKAFHDY
notes: Drosophila SSDP, residues 1-92; Obligate dimer; dimers and tetramers are seen by SEC-MALS; also called SSDP-N; WT Lip-SSDP_(1–92); source: E. coli BL21(DE3)-RIL, purified (Ni-NTA, gel filtration); alone or coexpressed with MBP-LCCD from a bicistronic vector
- stoichiometry N [3]: 2 and 4
- stoichiometry N (MBP-LCCD_(Chip)): ~2 SSDP chains per LCCD (4:2, from the printed formula) and ~2 SSDP chains per LCCD

B3: Lip-SSDP_(1–92) V65K (domain or fragment, Drosophila, UniProt Q9VEB9 1-92, looked up)
chain: B2 chain with V65K
notes: Drosophila SSDP, residues 1-92; also called SSDP V65K; source: E. coli BL21(DE3)-RIL, purified (Ni-NTA, gel filtration); alone or coexpressed with MBP-LCCD
- stoichiometry N [4]: 4

- stoichiometry N (MBP-LCCD_(Chip)): 2 SSDP chains per LCCD
B4: Lip-SSDP_(1–92) ML (I50E L52E) (domain or fragment, Drosophila, UniProt Q9VEB9 1-92, looked up)
chain: B2 chain with I50E, L52E
notes: Drosophila SSDP, residues 1-92; also called SSDP ML; source: E. coli BL21(DE3)-RIL, purified (Ni-NTA, gel filtration); alone or coexpressed with MBP-LCCD
- binding result [3]: binds

B5: SSDP_(1–86) (domain or fragment, Drosophila, UniProt Q9VEB9 1-86, looked up)
chain: MYGKSKTSAVPSDAQAREKLALYVYEYLLHVGAQKAAQTFLSEIRWEKNITLGEPPGFLHTWWCVFWDLYCAAPERRDQCDHSSEA
notes: also called SSDP-N; N-terminal dimerization domain of SSDP; source: E. coli BL21(DE3)-RIL, purified (Ni-NTA, gel filtration)
- binding result [5]: binds
